Consider 9 molecules from paper doi:10.1101/2020.02.11.943977.

What all share (assay): EMSA
Background: In EMSA bound probe runs differently from free probe, usually more slowly.

Data set [1] deals with T1, Replication protein A (RPA heterotrimer) (human, UniProt P27694;P15927;P35244 1-616;1-270;1-121).
Data set [2] addresses T1, Replication protein A (RPA heterotrimer). The source holds these as a separate data set.
Data set [3] has the same target. The source holds these as a separate data set.
For data set [4] the target is unchanged. This is another data set of the same source.
Data set [5] shares this target. This is another data set of the same source.

A word on the Kd: it is the concentration at which binding is half-saturated. Lower therefore signals higher affinity.

Like-named read-outs stand apart in the source and are kept apart here.

T1 sequence (P27694 whole entry, chain 1 of 3): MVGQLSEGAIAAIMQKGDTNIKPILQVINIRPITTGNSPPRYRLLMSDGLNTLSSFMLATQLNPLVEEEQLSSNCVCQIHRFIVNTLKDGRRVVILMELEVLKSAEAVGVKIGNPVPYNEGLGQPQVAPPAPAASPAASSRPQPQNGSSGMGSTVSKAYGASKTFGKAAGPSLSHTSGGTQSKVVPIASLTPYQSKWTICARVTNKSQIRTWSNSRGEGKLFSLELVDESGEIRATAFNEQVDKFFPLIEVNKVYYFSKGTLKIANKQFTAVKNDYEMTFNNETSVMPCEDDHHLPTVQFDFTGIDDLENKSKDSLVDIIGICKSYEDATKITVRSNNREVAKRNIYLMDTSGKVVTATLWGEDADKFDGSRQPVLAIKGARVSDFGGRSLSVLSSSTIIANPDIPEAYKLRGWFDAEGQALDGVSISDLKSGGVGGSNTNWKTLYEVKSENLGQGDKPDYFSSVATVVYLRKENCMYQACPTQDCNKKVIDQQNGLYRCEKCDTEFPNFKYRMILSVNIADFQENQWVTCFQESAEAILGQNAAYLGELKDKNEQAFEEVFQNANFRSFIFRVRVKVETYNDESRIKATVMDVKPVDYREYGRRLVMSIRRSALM
T1 sequence (P15927 whole entry, chain 2 of 3): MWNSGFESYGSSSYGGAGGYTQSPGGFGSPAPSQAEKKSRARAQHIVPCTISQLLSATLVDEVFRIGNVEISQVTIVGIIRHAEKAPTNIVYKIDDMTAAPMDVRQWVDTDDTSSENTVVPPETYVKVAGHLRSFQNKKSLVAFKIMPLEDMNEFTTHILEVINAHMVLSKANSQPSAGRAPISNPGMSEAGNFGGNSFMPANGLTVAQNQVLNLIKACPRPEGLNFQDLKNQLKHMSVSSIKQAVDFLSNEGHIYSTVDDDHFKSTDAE
T1 sequence (P35244 whole entry, chain 3 of 3): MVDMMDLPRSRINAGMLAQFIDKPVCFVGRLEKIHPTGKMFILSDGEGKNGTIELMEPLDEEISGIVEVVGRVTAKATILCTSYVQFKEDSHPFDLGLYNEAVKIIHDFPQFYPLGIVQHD

Regarding GAAGCAUUUAUCAGGGUUAUUGUCUCAUGAGCGGAU (ssRNA) [RNA no. 6R (36 nt)], the “apparent K (half saturation)” value in data set [1] came out at 65 nM. On to CGUUAAGGGAUUUUGGUCAUGAGAUUAUCAAAAAGGAUCUUCACCUAG (ssRNA) [RNA no. 7R], for which the Kd in data set [2] is 248 ± 32.7 pM. Regarding GAAGCAUUUAUCAGGGUUAUUGUC (ssRNA) [RNA no. 5R (24 nt)], the “apparent K (half saturation)” value in data set [1] turned out to be 120 nM. In data set [2], UUUUAAAUCAAUCUAAAGUAUAUAUGAGUAAACUUGGUCUGACAGUUA (ssRNA) [RNA no. 8R] came in with a Kd of 62.9 ± 8.2 pM.

For the molecule GAAGCATTTATCAGGGTTATTGTCTCATGAGCGGATACATATTTGAAT (ssDNA) [ssDNA no. 211], in data set [3], the Kd stood at 3.1 ± 0.6 pM.

B1: dsDNA nos. 211/212 (dsDNA)
DNA 1: GAAGCATTTATCAGGGTTATTGTCTCATGAGCGGATACATATTTGAAT
DNA 2: ATTCAAATATGTATCCGCTCATGAGACAATAACCCTGATAAATGCTTC
For the molecule B1, binding in data set [3] was put at a Kd of 35500 ± 7000 pM. Take GAAGCAUUUAUCAGGGUUAUUGUCUCAUGAGCGGAUACAUAUUUGAAU (ssRNA) [RNA no. 501]: the results for the dissociation constant (Kd) in data set [4] and in data set [3] were 72 ± 10.2 pM and 101 ± 17 pM, respectively.

B2: RNA-DNA hybrid nos. 501/212 (DNA:RNA)
RNA: GAAGCAUUUAUCAGGGUUAUUGUCUCAUGAGCGGAUACAUAUUUGAAU
DNA: B1 DNA 2
In data set [3], B2 gave a Kd of 85900 ± 4500 pM. On to AAUGCUUAAUCAGUGAGGCACCUAUCUCAGCGAUCUGUCUAUUUCGUU (ssRNA) [RNA no. 3R], for which the dissociation constant Kd in data set [5] was 100 ± 23.2 pM.
